Results published in patent US20240425606A1, “ANTI-IL-11RA ANTIBODIES” (Lassen Therapeutics 1, Inc., priority 2021, published 2024).
Substitutions are numbered along the chain they refer to. In names and notes the source's numbering stands.

T1: IL-11R on STAT3 Reporter (Luciferase)-HEK293 cells (UniProt Q14626 23-422)
T1 sequence (looked up): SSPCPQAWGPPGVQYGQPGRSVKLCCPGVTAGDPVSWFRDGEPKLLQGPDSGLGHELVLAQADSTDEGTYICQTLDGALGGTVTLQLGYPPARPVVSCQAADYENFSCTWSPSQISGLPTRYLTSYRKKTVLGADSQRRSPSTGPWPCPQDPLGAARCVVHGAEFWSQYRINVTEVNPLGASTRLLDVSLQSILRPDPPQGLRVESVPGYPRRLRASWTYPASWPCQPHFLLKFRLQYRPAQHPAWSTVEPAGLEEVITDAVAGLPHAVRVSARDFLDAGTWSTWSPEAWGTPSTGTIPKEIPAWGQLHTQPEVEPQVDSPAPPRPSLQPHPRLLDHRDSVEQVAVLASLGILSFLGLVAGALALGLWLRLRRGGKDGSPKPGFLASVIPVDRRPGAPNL

T2: human IL-11Rα (human, UniProt Q14626 23-363, limits assumed)
T2 construct: Protein coated on ELISA plates and used in solution for BLI; also called hIL-11Rα; hIL-11R
T2 sequence: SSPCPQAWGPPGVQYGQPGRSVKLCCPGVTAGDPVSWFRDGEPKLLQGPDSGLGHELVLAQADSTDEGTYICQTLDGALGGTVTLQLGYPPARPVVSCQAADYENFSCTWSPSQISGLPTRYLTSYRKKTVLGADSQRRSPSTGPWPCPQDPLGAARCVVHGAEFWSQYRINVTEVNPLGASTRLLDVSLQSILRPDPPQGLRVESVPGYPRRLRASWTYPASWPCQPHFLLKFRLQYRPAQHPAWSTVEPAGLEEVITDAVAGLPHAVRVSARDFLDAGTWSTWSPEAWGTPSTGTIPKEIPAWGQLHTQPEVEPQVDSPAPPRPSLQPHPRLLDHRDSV

B1: mAb5 (antibody, V domains shown)
VH: EVQLLESGGGLVQPGGSLRLSCAASGFTFSWYSMTWVRQAPGKGLEWVSSIVPYGDLTQYADSVKGRFTISRDNSKNTLYLQMNSLRAEDTAVYYCAKGPGWGSFDLWGRGTLVTVSS
VL: DIQMTQSPSSLSASVGDRVTITCQASQDINNYLNWYQQKPGKAPKLLIYDASNLQTGVPSRFSGSGSGTDFTFTISSLQPEDIATYYCQQHESQSPTFGPGTKVDIK
notes: Expressed as human IgG4 (S228P EU); also called mAb5 IL11RA Ab
B2: mAb6 (antibody, V domains shown)
VH: B1 VH
VL: B1 VL with S93F
notes: Expressed as human IgG4 (S228P EU)
B3: mAb7 (antibody, V domains shown)
VH: B1 VH with W31N, S33A, T35S
VL: B1 VL
notes: as for B2
B4: mAb8 (antibody, V domains shown)
VH: B1 VH with W31S, S33A, T35S
VL: B1 VL
notes: as for B2
B5: mAb9 (antibody, V domains shown)
VH: B1 VH with S50G
VL: B1 VL
notes: as for B2
B6: mAb10 (antibody, V domains shown)
VH: B1 VH with P53A
VL: B1 VL
notes: as for B2
B7: mAb11 (antibody, V domains shown)
VH: B1 VH with P53D
VL: B1 VL
notes: as for B2
B8: mAb12 (antibody, V domains shown)
VH: B1 VH with G103Y
VL: B1 VL
notes: as for B2
B9: mAb13 (antibody, V domains shown)
VH: B1 VH with G99P, P100E, G101D, S104R
VL: B1 VL
notes: as for B2
B10: mAb14 (antibody, V domains shown)
VH: B1 VH with D62E
VL: B1 VL
notes: as for B2
B11: mAb15 (antibody, V domains shown)
VH: B1 VH
VL: B1 VL with S93T, S95T
notes: as for B2
B12: mAb2 (antibody, V domains shown)
VH: B1 VH with Y54S, D56G, L57H, G101D
VL: B1 VL with S93F
notes: as for B2
B13: mAb3 (antibody, V domains shown)
VH: B1 VH with G101D
VL: B1 VL
notes: as for B2
B14: mAb4 (antibody, V domains shown)
VH: B1 VH with G101D
VL: B1 VL with S93F
notes: as for B2

The binders below were run against T1, IL-11R on STAT3 Reporter … (assay: cell-based or functional assay).
In the case of B1, the “IC50, STAT3 luciferase reporter assay (HEK293), inhibiting IL-11, Assay 1” value (“IC50 … inhibiting IL-11, Assay 1” below) is reported as 0.16 µg/mL, the “IC50, STAT3 luciferase reporter assay (HEK293), inhibiting IL-11, Assay 2” value (from here on “IC50 … inhibiting IL-11, Assay 2”) is reported as 0.18 µg/mL and the “IC50, STAT3 luciferase reporter assay (HEK293), inhibiting IL-11, Mean” value (“IC50 … inhibiting IL-11, Mean” for short) is reported as 0.17 µg/mL.
B2 was tested, and the “IC50 … inhibiting IL-11, Assay 1” value was 11 µg/mL, the “IC50 … inhibiting IL-11, Assay 2” value was 0.39 µg/mL and the “IC50 … inhibiting IL-11, Mean” value was 5.7 µg/mL.
B3 was tested, and the “IC50 … inhibiting IL-11, Assay 1” value was 1 µg/mL and the “IC50 … inhibiting IL-11, Mean” value was 1 µg/mL.
In the case of B4, the “IC50 … inhibiting IL-11, Assay 1” value is reported as 0.67 µg/mL, the “IC50 … inhibiting IL-11, Assay 2” value is reported as 1.25 µg/mL and the “IC50 … inhibiting IL-11, Mean” value is reported as 0.96 µg/mL.
With B5 the “IC50 … inhibiting IL-11, Assay 1” value was 0.11 µg/mL, the “IC50 … inhibiting IL-11, Assay 2” value was 0.1 µg/mL and the “IC50 … inhibiting IL-11, Mean” value was 0.1 µg/mL.
B6 was tested, and the “IC50 … inhibiting IL-11, Assay 1” value was 2 µg/mL and the “IC50 … inhibiting IL-11, Mean” value was 2 µg/mL.
In the case of B7, the “IC50 … inhibiting IL-11, Assay 1” value is reported as greater than 100 µg/mL and the “IC50 … inhibiting IL-11, Mean” value is reported as greater than 100 µg/mL.
With B8 the “IC50 … inhibiting IL-11, Assay 1” value was 0.42 µg/mL, the “IC50 … inhibiting IL-11, Assay 2” value was 0.39 µg/mL and the “IC50 … inhibiting IL-11, Mean” value was 0.41 µg/mL.
B9 was tested, and the “IC50 … inhibiting IL-11, Assay 1” value was 0.05 µg/mL, the “IC50 … inhibiting IL-11, Assay 2” value was 0.19 µg/mL and the “IC50 … inhibiting IL-11, Mean” value was 0.12 µg/mL.
In the case of B10, the “IC50 … inhibiting IL-11, Assay 1” value is reported as 0.39 µg/mL, the “IC50 … inhibiting IL-11, Assay 2” value is reported as 0.28 µg/mL and the “IC50 … inhibiting IL-11, Mean” value is reported as 0.34 µg/mL.
In the case of B11, the “IC50 … inhibiting IL-11, Assay 1” value is reported as 0.38 µg/mL, the “IC50 … inhibiting IL-11, Assay 2” value is reported as 0.33 µg/mL and the “IC50 … inhibiting IL-11, Mean” value is reported as 0.36 µg/mL.

Each binder was assayed against T2, human IL-11Rα (assay: competitive ELISA, IL-11R coated on plate; competitor: biotinylated TS7 (0.1 µg/mL)).
Procedure: (§1) Relative binding activity of the antibodies was tested by competitive ELISA using biotinylated mAbs 8E2 or TS7. Antibodies 8E2 and TS7 were biotinylated using sulfo-NHS Biotin (Thermo Fisher) per the manufacturer's instructions. IL-11R was coated onto ELISA plates (Nunc, MaxiSorp) at 2 μg/mL in PBS, and plates were blocked with 2% BSA in PBS. After washing the plate with water, antibodies to be tested were titrated across the plate in a final volume of 90 μL followed by addition of 10 μL of biotinylated 8E2 or biotinylated TS7, as indicated in Table E1 (0.1 μg/mL final concentration) to each well. Plates were incubated for 2 hours on a plate-shaker, followed by washing and addition of 100 μL/well of streptavidin-HRP (Jackson ImmunoResearch, 1/1000 dilution). After a further 1 hour incubation, plates were washed, developed with Ultra-TMB HRP substrate (Thermo Fisher), and stopped by the addition of 50 μL/well of 2 M sulfuric acid. Plates were read at 450 nm on an iD5 plate reader (Molecular Devices).
Work on B1 yielded an IC50 of 2.1 µg/mL.
B3 gave an IC50 of 6.9 µg/mL.
B4 was tested, and the IC50 was 6.2 µg/mL.
With B5 the IC50 was 2.3 µg/mL.
Work on B6 yielded an IC50 greater than 15 µg/mL.
B7 showed an IC50 greater than 15 µg/mL.
For B8, the IC50 was 3.6 µg/mL.
Work on B9 yielded an IC50 of 2.3 µg/mL.
B10 showed an IC50 of 2 µg/mL.
For B11, the IC50 was 1.7 µg/mL.

Each binder was assayed against T2, human IL-11Rα (assay: BLI (Octet RED96e), mAb on protein G biosensors, hIL-11Rα in solution).
Procedure: Association was carried out in the presence of a 2-fold dilution series of hIL-11Rα and was allowed to proceed for 120 seconds; dissociation was measured for 300 to 1200 seconds.
In the case of B1, the Kd is reported as less than 1 pM, the koff is reported as less than 1e-07 s⁻¹ and the kon is reported as 63700 M⁻¹ s⁻¹.
B2 was tested, and the Kd was less than 1 pM, the koff was less than 1e-07 s⁻¹ and the kon was 800000 M⁻¹ s⁻¹.
Work on B3 yielded a Kd of less than 1 pM, a koff of less than 1e-07 s⁻¹ and a kon of 63500 M⁻¹ s⁻¹.
Binder B4 has a Kd of less than 1 pM, a koff of less than 1e-07 s⁻¹ and a kon of 65100 M⁻¹ s⁻¹.
In the case of B5, the Kd is reported as less than 1 pM, the koff is reported as less than 1e-07 s⁻¹ and the kon is reported as 62200 M⁻¹ s⁻¹.
Work on B6 yielded a Kd of 496 pM, a koff of 0.000416 s⁻¹ and a kon of 840000 M⁻¹ s⁻¹.
For B7, the Kd was 550000 pM, the koff was 0.0181 s⁻¹ and the kon was 32900 M⁻¹ s⁻¹.
Binder B8 has a Kd of less than 1 pM, a koff of less than 1e-07 s⁻¹ and a kon of 58100 M⁻¹ s⁻¹.
B9 showed a Kd of less than 1 pM, a koff of less than 1e-07 s⁻¹ and a kon of 66700 M⁻¹ s⁻¹.
In the case of B10, the Kd is reported as less than 1 pM, the koff is reported as less than 1e-07 s⁻¹ and the kon is reported as 33700 M⁻¹ s⁻¹.
With B11 the Kd was less than 1 pM, the koff was less than 1e-07 s⁻¹ and the kon was 84000 M⁻¹ s⁻¹.

Each binder was assayed against T2, human IL-11Rα (assay: BLI (Octet RED96e), mAb on anti-human constant domain (AHC) biosensors, hIL-11R in solution).
Source text: A further series of antibodies were designed in which the residue at Kabat position 31 of the heavy chain was varied (mAbs 16-32). In this case an alternate biolayer interferometry assay was used to initially rank the antibodies compared to mAb5, the closest relative in sequence to mAbs 16-32. MAbs were loaded onto anti-human constant domain (AHC) biosensors (FortdBio) in 10× kinetics buffer consisting of PBS, 0.1% BSA, 0.02% Tween 20 for 120 s to achieve a spectral shift value of 0.8 to 1.2 nm. Association was carried out in the presence of 2-fold dilution series of hIL-1 IR and was allowed to proceed for 120 s. Dilution series started 10 nM. The dissociation in 10× kinetics buffer for 1200 s. Binding kinetic measurements were taken on an Octet RED96e instrument.
For B1, the Kd was 50 pM, the koff was 2.5e-05 s⁻¹ and the kon was 490000 M⁻¹ s⁻¹.

What follows are binders tested against T2, human IL-11Rα (assay: competitive ELISA, IL-11R coated on plate; competitor: biotinylated 8E2 (0.1 µg/mL)).
Procedure: as §1
B1 showed an IC50 of 1.4 µg/mL.
With B12 the IC50 was greater than 30 µg/mL.
B13 gave an IC50 of 2.8 µg/mL.
B14 gave an IC50 of 5.5 µg/mL.
Binder B2 has an IC50 of 1.5 µg/mL.
